Tested on: RIG-I (recombinant)
Assay: filter binding
Settings: 25 mM Tris-HCl pH 7.5, 150 mM NaCl, 1.5 mM MgCl2, room temperature, filter binding with 600 nM BSA, 30 min, pull-down in lysate with 0.5% Triton X-100

## polyU/UC RNA pseudouridine
Pseudouridine substituted for U
  Kd: 0.255 µM

## polyU/UC RNA canonical
  Kd: 0.186 µM

## polyU/UC RNA m6A
N6-methyladenosine substituted for A
  Kd: > 1.07 µM

## polyU/UC RNA 2'FdU
2'-fluoro-deoxyuridine substituted for U
  Kd: 0.029 µM

Reference: PMC5030355
